In general, EC50 (read off the curve) refers to the midpoint of the concentration-response curve. By Kd is commonly meant the concentration at which binding is half-saturated. Read a low Kd as tighter binding. As usually defined, the koff is a measure of how fast the partners let go of each other. In general, kon refers to a measure of how fast the partners come together.

The target of assay [1] is T1, isolated pure human C-reactive protein (CRP) (human, UniProt P02741 19-224).
T1 construct: also called human CRP
T1 sequence (looked up): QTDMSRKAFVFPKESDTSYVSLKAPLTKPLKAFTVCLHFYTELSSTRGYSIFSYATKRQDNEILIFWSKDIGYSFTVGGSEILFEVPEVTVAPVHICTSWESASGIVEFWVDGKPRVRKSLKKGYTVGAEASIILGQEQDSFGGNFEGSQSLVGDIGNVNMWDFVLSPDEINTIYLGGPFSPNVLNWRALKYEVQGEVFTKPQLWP
The experiment in a line: western blot from SDS-PAGE. On the technique in general: A western blot detects proteins with antibodies after separation by electrophoresis.

The target of assay [2] is T2, human SAP N-terminal 1-158-homoserine lactone polypeptide (CNBr cleavage fragment) (Homo sapiens, position 159 converted from methionine to homoserine lactone).
T2 construct: Tested in western blot from SDS-PAGE; also called approximately 20 kD fragment
T2 chain: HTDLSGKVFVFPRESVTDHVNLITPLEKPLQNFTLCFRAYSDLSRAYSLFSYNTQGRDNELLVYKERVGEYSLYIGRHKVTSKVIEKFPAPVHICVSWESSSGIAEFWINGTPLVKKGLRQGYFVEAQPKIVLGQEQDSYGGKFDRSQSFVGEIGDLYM
The experiment in a line: western blot from SDS-PAGE.

The target in assay [3] is T3, human SAP 1-140 fragment (chymotrypsin digestion in the absence of calcium) (Homo sapiens).
T3 construct: Tested in western blot from SDS-PAGE; also called residue 1-140 fragment
T3 chain: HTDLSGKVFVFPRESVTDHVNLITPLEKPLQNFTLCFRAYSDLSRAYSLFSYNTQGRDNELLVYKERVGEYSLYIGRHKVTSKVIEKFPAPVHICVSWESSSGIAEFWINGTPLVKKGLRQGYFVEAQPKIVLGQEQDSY
The experiment in a line: western blot from SDS-PAGE.

Assay [4] has as its target T4, human serum amyloid P component (SAP), purified (Homo sapiens, UniProt P02743 20-223).
T4 construct: Immobilised directly, amine-coupled, captured on O-phosphoethanolamine or by sheep polyclonal antibody, depending on the assay; also called human SAP; native human SAP
The experiment in a line: direct ELISA, human SAP coated at 5 µg/mL, detection with HRP rabbit anti-mouse IgG. As to the method: 1 μg/mL or 5 μg/mL human SAP was directly immobilised onto an ELISA plate and blocked with 1% BSA/TBS plus 0.05% TWEEN20. Anti-SAP antibodies from purified material were titrated across the plate. Bound antibody was detected by treatment with a horse-radish peroxidase (HRP)-conjugated rabbit-anti-mouse IgG antibody (Dako, P0260). The ELISA was developed using O-phenylenediamine dihydrochloride (OPD) peroxidase substrate (Sigma, P9187).
(ELISA stands for enzyme-linked immunosorbent assay.)

Assay [5] concerns the target T4, human serum amyloid P component (SAP), …. Briefly: Biacore (BIAcoreX), human SAP covalently immobilised on the chip; mean and SD of 3 replicates. On the technique in general: SPR reads the build-up and loss of mass on a sensor chip optically.
Assay [6] shares this target. The experiment in a line: Biacore, human SAP captured on immobilised O-phosphoethanolamine (CM5 chip, calcium), bivalent analyte model. How it is done:
(§1) O-phosphoethanolamine was immobilised on a Biacore CM5 chip by primary amine coupling in accordance with the manufacturer's instructions. Human SAP was then captured on the surface in the presence of calcium chloride, in order to replicate in the Biacore system in vitro, the precise orientation of SAP molecules bound to amyloid fibrils in vivo. Anti SAP antibodies were then passed over this surface at 256, 64, 16, 4, 1 nM and a binding sensorgrams obtained. Analysis was carried out at 25° C. using 4% BSA, 10 mM Tris, 140 mM NaCl, 2 mM CaCl₂, 0.05% surfactant P20, 0.02% Na N₃, pH 8.0 as running buffer. […] Data generated were double referenced with a buffer injection over the human SAP surface and analyzed using the bivalent analyte model in the Biacore T100 evaluation software.

The target is the same in assay [7]. The experiment in a line: Biacore, human SAP captured on immobilised O-phosphoethanolamine (CM5 chip, calcium), bivalent analyte model; kd outside the Biacore measurement range. As to the method:
as §1

Assay [8] shares this target. The experiment in a line: Biacore (BIAcoreX), human SAP covalently immobilised on the chip; mean and SD of 3 replicates; human SAP covalently immobilised on the chip; mean of 3 replicates.
Assay [9] shares this target. Briefly: competition ELISA, human SAP coated at 5 µg/mL, constant SAP-E chimera (cSAP-E) as competitor, bound chimera detected with goat anti-human kappa light chain peroxidase conjugate. From the text:
A constant concentration of chimeric anti-SAP mAb was mixed with serial diluted (1:1) amounts of mouse anti-SAP mAbs. Plates were washed and the amount of chimeric antibody bound to the immobilised human SAP was detected using goat anti-human Kappa Light chain peroxidase conjugate (Sigma, A7164). The ELISA was developed using O-phenylenediamine dihydrochloride (OPD) peroxidase substrate (Sigma, P9187).

B1: SAP-E mouse monoclonal anti-human SAP antibody (antibody, mouse IgG2a, V domains shown)
VH: QASLQQSGTELVRSGASVKMSCKASGFTFATYNMHWIKQTPGQGLEWIGYIYPGDGNANYNQQFKGKATLTADTSSNTAYMQISSLTSEDSAVYFCARGDFDYDGGYYFDSWGQGTTLTVSS
VL: DIQMTQSPASLSASVGETVTITCRASENIYSYLAWYQQKQGRSPQLLVHNAKTLAEGVPSRVSGSGSGTHFSLKINGLQPEDFGNYYCQHHYGAPLTFGAGTKLELK
notes: also called Mouse SAP-E; murine SAP-E
Turning to B1, the binding result in [1] is “no binding (tested: 500 ng and 100 ng loaded)”; in [2] it was “binds”; in assay [3], “binds”. In addition, the “EC50 (read off the curve)” value in [4] was around 0.04 µg/mL. Further, the dissociation constant (Kd) in assay [5] came to 5 nM. Moreover, the koff in assay [5] is 6e-05 s⁻¹; in assay [7] it was below 1e-05 s⁻¹. The values for the kon in assay [6] and in [8] were 31500 M⁻¹ s⁻¹ and 20000 M⁻¹ s⁻¹, respectively. The “IC50 (read off the curve)” value in assay [9] was around 2 µg/mL.

The values above are taken from US20120225055A1 (GlaxoSmithKline, published 2012).
